According to patent US20220267750A1 (Merck KGaA, published 2022):

Molecular target: GP41-1 C-intein-thioredoxin fusion protein (CINT_TRX)
Test: cell-based or functional assay

B1: GP41-1 N-intein variant NINTΔA_TM fused with solubilization partner 138 (other)
chain: MTRSGYALDLKTQVQTPQGMKEISNIQVGDLVLSNTGYNEVLNVFPKSKKKSYKITLEDGKEIITSEEHLFPTQTGEMNISGGLKEGMMLYVKEGGMNKDEAGGNWKQFKGKVKEQWGKLTDDDMTIIEGKRDQLVGKIQERYGYQKDQAEKEVVDWETRNEYRW
catalytic rate (cleavage rate): ~3 fold of the parent construct NINTΔA_CC
